Source: article PMC6844113

Substrate: Nc1ncnc2c1ncn2[C@@H]1O[C@H](COP(=O)(O)OP(=O)(O)OP(=O)(O)O)[C@@H](O)[C@H]1O
Assay: purified protein
Type: biochemical, Homo sapiens
Conditions: Mg2+

B1: human DNA topoisomerase IIα (Homo sapiens) (protein)
chain: MEVSPLQPVNENMQVNKIKKNEDAKKRLSVERIYQKKTQLEHILLRPDTYIGSVELVTQQMWVYDEDVGINYREVTFVPGLYKIFDEILVNAADNKQRDPKMSCIRVTIDPENNLISIWNNGKGIPVVEHKVEKMYVPALIFGQLLTSSNYDDDEKKVTGGRNGYGAKLCNIFSTKFTVETASREYKKMFKQTWMDNMGRAGEMELKPFNGEDYTCITFQPDLSKFKMQSLDKDIVALMVRRAYDIAGSTKDVKVFLNGNKLPVKGFRSYVDMYLKDKLDETGNSLKVIHEQVNHRWEVCLTMSEKGFQQISFVNSIATSKGGRHVDYVADQIVTKLVDVVKKKNKGGVAVKAHQVKNHMWIFVNALIENPTFDSQTKENMTLQPKSFGSTCQLSEKFIKAAIGCGIVESILNWVKFKAQVQLNKKCSAVKHNRIKGIPKLDDANDAGGRNSTECTLILTEGDSAKTLAVSGLGVVGRDKYGVFPLRGKILNVREASHKQIMENAEINNIIKIVGLQYKKNYEDEDSLKTLRYGKIMIMTDQDQDGSHIKGLLINFIHHNWPSLLRHRFLEEFITPIVKVSKNKQEMAFYSLPEFEEWKSSTPNHKKWKVKYYKGLGTSTSKEAKEYFADMKRHRIQFKYSGPEDDAAISLAFSKKQIDDRKEWLTNFMEDRRQRKLLGLPEDYLYGQTTTYLTYNDFINKELILFSNSDNERSIPSMVDGLKPGQRKVLFTCFKRNDKREVKVAQLAGSVAEMSSYHHGEMSLMMTIINLAQNFVGSNNLNLLQPIGQFGTRLHGGKDSASPRYIFTMLSSLARLLFPPKDDHTLKFLYDDNQRVEPEWYIPIIPMVLINGAEGIGTGWSCKIPNFDVREIVNNIRRLMDGEEPLPMLPSYKNFKGTIEELAPNQYVISGEVAILNSTTIEISELPVRTWTQTYKEQVLEPMLNGTEKTPPLITDYREYHTDTTVKFVVKMTEEKLAEAERVGLHKVFKLQTSLTCNSMVLFDHVGCLKKYDTVLDILRDFFELRLKYYGLRKEWLLGMLGAESAKLNNQARFILEKIDGKIIIENKPKKELIKVLIQRGYDSDPVKAWKEAQQKVPDEEENEESDNEKETEKSDSVTDSGPTFNYLLDMPLWYLTKEKKDELCRLRNEKEQELDTLKRKSPSDLWKEDLATFIEELEAVEAKEKQDEQVGLPGKGGKAKGKKTQMAEVLPSPRGQRVIPRITIEMKAEAEKKNKKKIKNENTEGSPQEDGVELEGLKQRLEKKQKREPGTKTKKQTTLAFKPIKKGKKRNPWSDSESDRSSDESNFDVPPRETEPRRAATKTKFTMDLDSDEDFSDFDEKTDDEDFVPSDASPPKTKTSPKLSNKELKPQKSVVSDLEADDVKGSVPLSSSPPATHFPDETEITNPVPKKNVTVKKTAAKSQSSTSTTGAKKRAAPKGTKRDPALNSGVSQKPDPAKTKNRRKRKPSTSDDSDSNFEKIVSKAVTSKKSKGESDDFHMDFDSAVAPRAKSVRAKKPIKYLEESDEDDLF
B1 gave a Km of 220 ± 60 µM.
